Assay results as given in paper PMC3836734.

Target: Fc neonatal receptor (FcRn) (human (endogenous in HEC-1A)) (UniProt P55899)
Sequence of UniProt P55899 (P55899 whole entry, looked up, tested part not stated): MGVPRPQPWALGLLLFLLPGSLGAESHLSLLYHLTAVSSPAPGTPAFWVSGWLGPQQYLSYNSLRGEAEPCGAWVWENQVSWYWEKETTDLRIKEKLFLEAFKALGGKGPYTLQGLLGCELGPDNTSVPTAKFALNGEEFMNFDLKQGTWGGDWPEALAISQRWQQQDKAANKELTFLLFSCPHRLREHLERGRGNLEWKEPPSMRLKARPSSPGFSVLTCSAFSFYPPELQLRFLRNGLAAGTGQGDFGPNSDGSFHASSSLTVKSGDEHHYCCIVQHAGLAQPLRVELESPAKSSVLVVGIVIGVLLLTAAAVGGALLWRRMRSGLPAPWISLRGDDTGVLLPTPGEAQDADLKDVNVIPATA

How did the transcytosis of IgG alone (50 µg/ml) across HEC-1A cells, IgG in subnatant fluid by ELISA after 12 hours; about 0.4% at pH 7.4 turn out when mAb VRC01, IgG1 (antibody) was run?
The transcytosis of IgG alone (50 µg/ml) across HEC-1A cells, IgG in subnatant fluid by ELISA after 12 hours; about 0.4% at pH 7.4 was 1.3%.
